Reference: PMC8978092 (Cell, 2022)

Tests used:
crystal structure = molecular target: the molecule itself; assay: crystal structure
cryo-EM structure = molecular target: the molecule itself; assay: cryo-EM structure

Protein | stoichiometry N (crystal structure) | stoichiometry N (cryo-EM structure)
Enterococcus pore-forming toxin 4 (Epx4), residues 32-335, C-terminal His6 (natural protein) SEDNIIGTTTQEIDEHGNVKTIITVKNQQIESYTSTDSGTAKNRSTLTVNANFLNDKYSNELTTILSLNGFIPSGRKFIFPKNNTLKGEMLWPQRYSTAVYNIPLDKSVKITNSTPDNTIRSKEVSNSITYGIGGGIKMEGKQPGANLDANAAITKTISYQQPDYETAKTTSTVTGVNWNTNFTETRDGYTRNSWNPVYGNQMFMYGRYTSNIRNNFTPDYQLSSLITSGFSPSYGLVLRAPKDVKKSRIKVVFARRSETYQQNWDGLNWWGRNFYDTKNPDSLSKVTLTFELDWQNHRVTFIELEHHHHHH | 8 | –
Enterococcus pore-forming toxin 1 (Epx1), residues 24-345, C-terminal His6 (natural protein) DVQVFADNPVLGTEVTFEKDENGRIVKIISKNQYRITIYNSVDAGDTPNDASVSLDVDFIDDKNSGEMGAVASINTFIPSGLRYVEGYKYKGVTNPIYKNLSAGMLWPKKYRVEVVNIPIDQATKIITATPNNNIKEKQVSDTISYGFGGSVSADGKKPGGSIEANLAYTKTTTYDQPDYETSQIKKTTKEAVWDTSFVETRDGYTPNSWNPVYGNQMFMRGRYSNVSPIDNIKKGGEVSSLISGGFSPKMGVVLASPNGTKKSQFVVRVSRMSDMYIMRWSGTEWGGENEINQNVPKEYNALMYEDVKFEIDWEQRTVRTILEHHHHHH | – | 8
